In experiment [1] the target is T1, lysozyme (Gallus gallus (Chicken)., UniProt P00698).
T1 construct: lysozyme, ~15 kDa on SDS-PAGE
The experiment is described as follows: pull-down; FLAG-tagged quenchbody from the crude IVTT mixture bound to anti-FLAG magnetic agarose beads, combined with 100 uL of 1 uM MBP or 10 uM lysozyme, 30 min, room temperature, 1200 rpm; 6 washes with PBS; eluted with 3x FLAG peptide; reducing SDS-PAGE; semi-quantitative comparison with the wild type. As to conditions: one partner purified.

Experiment [2] has as its target T1, lysozyme. The experiment in a line: fluorescence intensity plate assay at one antigen concentration (fold-sense); 20 nM TAMRA-labelled quenchbody variants in PBS/0.05% Tween-20 with and without antigen (500 nM lysozyme or MBP in Fig. 3B and 3E; concentration not stated for Fig. 3C and 3F); fold-sense = fluorescence with antigen relative to 0 nM antigen. As to conditions: both partners purified.

Experiment [3] concerns the target T1, lysozyme. The experiment in a line: other fluorescence titration; 20 nM TAMRA-labelled quenchbody in PBS/0.05% Tween-20 with 1-8000 nM antigen, 1 h at room temperature (legend: 60 min, 25 °C), 384-well plate, excitation 535 ± 20 nm, emission 585 ± 30 nm; fit to single site-specific binding with Hill slope; EC50 as a proxy for KD. As to conditions: both partners purified.

T1 sequence (P00698 19-147): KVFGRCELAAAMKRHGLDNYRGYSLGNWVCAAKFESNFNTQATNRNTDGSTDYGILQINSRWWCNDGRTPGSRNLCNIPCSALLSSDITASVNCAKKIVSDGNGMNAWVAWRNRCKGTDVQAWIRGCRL

B1: lysozyme quenchbody (Qb-Lys) Y104W (VHH)
VHH: DVQLVESGGGSVQAGGSLRLSCAASGYIASINYLGWFRQAPGKEREGVAAVSPAGGTPYYADSVKGRFTVSLDNAENTVYLQMNSLKPEDTALYYCAAARQGWWIPLNSYGYNYWGQGTQVTVSS
notes: as the VHH of m2 (nanobody chain of PDB 1ZVH in the cassette) with the stated change; source: NEBExpress cell-free E. coli protein synthesis (IVTT); not shown: Cys-tag, N-terminal, kept
In the case of B1, the binding result in the experiment with lysozyme [1] was “binds”.

B2: lysozyme quenchbody (Qb-Lys) Y27W (VHH)
VHH: DVQLVESGGGSVQAGGSLRLSCAASGWIASINYLGWFRQAPGKEREGVAAVSPAGGTPYYADSVKGRFTVSLDNAENTVYLQMNSLKPEDTALYYCAAARQGWYIPLNSYGYNYWGQGTQVTVSS
notes: as for B1
In the case of B2, the binding result in the experiment with lysozyme [1] is reported as “binds”.

B3: lysozyme quenchbody (Qb-Lys) Y27W/Y104W (VHH)
VHH: DVQLVESGGGSVQAGGSLRLSCAASGWIASINYLGWFRQAPGKEREGVAAVSPAGGTPYYADSVKGRFTVSLDNAENTVYLQMNSLKPEDTALYYCAAARQGWWIPLNSYGYNYWGQGTQVTVSS
notes: as the VHH of m2 (nanobody chain of PDB 1ZVH in the cassette) with the stated changes; Member of the 'single, pairwise, and triple Y27W, Y104W and Y110W mutants'; the combination is counted out from that phrase; also called pairwise mutant Y27W, Y104W; source: NEBExpress cell-free E. coli protein synthesis (IVTT); captured on anti-FLAG magnetic beads from the crude IVTT mixture (pull-down)
As to B3, the binding result with lysozyme [1] is recorded as “binds”.

B4: lysozyme quenchbody (Qb-Lys) Y27W/Y104W/Y110W (VHH)
VHH: DVQLVESGGGSVQAGGSLRLSCAASGWIASINYLGWFRQAPGKEREGVAAVSPAGGTPYYADSVKGRFTVSLDNAENTVYLQMNSLKPEDTALYYCAAARQGWWIPLNSWGYNYWGQGTQVTVSS
notes: as the VHH of m2 (nanobody chain of PDB 1ZVH in the cassette) with the stated changes; also called triple mutant Y27W, Y104W, Y110W; source: NEBExpress cell-free E. coli protein synthesis (IVTT); captured on anti-FLAG magnetic beads from the crude IVTT mixture (pull-down)
Turning to B4, in the experiment with lysozyme [1], the binding result is reported as “binds”.

B5: lysozyme quenchbody (Qb-Lys) W103Y (VHH)
VHH: DVQLVESGGGSVQAGGSLRLSCAASGYIASINYLGWFRQAPGKEREGVAAVSPAGGTPYYADSVKGRFTVSLDNAENTVYLQMNSLKPEDTALYYCAAARQGYYIPLNSYGYNYWGQGTQVTVSS
notes: as for B1
For B5, the binding result with lysozyme [1] is reported as “binds”.

B6: lysozyme quenchbody (Qb-Lys) Y104W/Y110W (VHH)
VHH: DVQLVESGGGSVQAGGSLRLSCAASGYIASINYLGWFRQAPGKEREGVAAVSPAGGTPYYADSVKGRFTVSLDNAENTVYLQMNSLKPEDTALYYCAAARQGWWIPLNSWGYNYWGQGTQVTVSS
notes: as the VHH of m2 (nanobody chain of PDB 1ZVH in the cassette) with the stated changes; Member of the 'single, pairwise, and triple Y27W, Y104W and Y110W mutants'; the combination is counted out from that phrase; also called pairwise mutant Y104W, Y110W; source: NEBExpress cell-free E. coli protein synthesis (IVTT); not shown: Cys-tag, N-terminal, kept
As for B6, in the experiment with lysozyme [1], the binding result was “binds”.

B7: lysozyme-binding quenchbody (Qb-Lys), wild type (VHH)
VHH: DVQLVESGGGSVQAGGSLRLSCAASGYIASINYLGWFRQAPGKEREGVAAVSPAGGTPYYADSVKGRFTVSLDNAENTVYLQMNSLKPEDTALYYCAAARQGWYIPLNSYGYNYWGQGTQVTVSS
notes: the labelled, eluted form stood in the fluorescence assays; also called lysozyme quenchbody; source: NEBExpress cell-free E. coli protein synthesis (IVTT); not shown: Cys-tag, N-terminal, kept
Turning to B7, the “fold-sense (fluorescence with antigen relative to without)” value in the experiment with lysozyme [2] was 1.3 fold. The molecule further displayed an EC50 in the experiment with lysozyme [3] of 7 nM.

B8: lysozyme quenchbody (Qb-Lys) Y27W/Y110W (VHH)
VHH: DVQLVESGGGSVQAGGSLRLSCAASGWIASINYLGWFRQAPGKEREGVAAVSPAGGTPYYADSVKGRFTVSLDNAENTVYLQMNSLKPEDTALYYCAAARQGWYIPLNSWGYNYWGQGTQVTVSS
notes: as the VHH of m2 (nanobody chain of PDB 1ZVH in the cassette) with the stated changes; Member of the 'single, pairwise, and triple Y27W, Y104W and Y110W mutants'; the combination is counted out from that phrase; also called pairwise mutant Y27W, Y110W; source: NEBExpress cell-free E. coli protein synthesis (IVTT); not shown: Cys-tag, N-terminal, kept
Turning to B8, the binding result with lysozyme [1] is on record as “binds”.

B9: lysozyme quenchbody (Qb-Lys) Y110W (VHH)
VHH: DVQLVESGGGSVQAGGSLRLSCAASGYIASINYLGWFRQAPGKEREGVAAVSPAGGTPYYADSVKGRFTVSLDNAENTVYLQMNSLKPEDTALYYCAAARQGWYIPLNSWGYNYWGQGTQVTVSS
notes: as for B1
As for B9, the “fold-sense (fluorescence with antigen relative to without)” value with lysozyme [2] came to 1.7 fold.

These data come from article PMC12177037 (Communications Biology, 2025).
